Assay results reported in patent US20230218771A1, “SELF-ASSEMBLING PRODRUGS AS IMMUNE BOOSTERS FOR CANCER IMMUNOTHERAPY” (priority 2020, published 2023).
Where a SMILES comes first, the peptide text is derived from it. Bridges are numbered along the chain shown (N, C = ends). [ ]: non-standard residue; d: D form. The star is where a group is joined. ξ: configuration not given here. X1 = CC[C@@]1(OC(=O)OCCSSC[C@H](NC(C)=O)C(=O)*)C(=O)OCc2c1cc1n(c2=O)Cc2cc3ccccc3nc2-1; S(CH2)2OCO2(CPT-20-yl) = CC[C@@]1(OC(=O)OCCS*)C(=O)OCc2c1cc1n(c2=O)Cc2cc3ccccc3nc2-1; ξR = N=C(N)NCCCC(N)C(=O)O

Tests used:
[1] = GSH responsive drug release of CPT prodrugs; format: in vitro ADME; conditions: presence of GSH, within 2 hours
Experimental: Briefly, 20 mM glutathione (GSH) and 400 μM diCPT-PLGLAG-iRGD or diCPT-iRGD stock solutions were prepared in water or PBS (pH 7.4). Equal volumes of GSH and diCPT-PLGLAG-iRGD or diCPT-iRGD solutions were then mixed to reach a final GSH concentration of 10 mM and the mixtures were incubated at 37° C. Samples were then taken at predetermined time points (0, 0.5, 1, 2, 4, 8, 12 and 24 h) and quantified using HPLC.

GL-261 cells = assay: Cytotoxicity assay (MTT or WST-1); format: cell-based; conditions: 48 h incubation
Experimental: GL-261 cells (2.5×10^3 cells/well) were incubated in a 96-well plate overnight. The cells were then treated with varying concentrations of CPT or diCPT-PLGLAG-iRGD or diCPT-iRGD solutions, with untreated cells used as a control. After 48 h incubation, cell viability was tested using an MTT or WST-1 assay. The percentage of cell viability was calculated as follows: Cell Viability (%)=A570sample/A570control×100%. IC50 values of the drug formulations were analyzed using Graph Pad Prism 5.

GL-261 tumor spheroids = assay: Inhibition of tumor spheroids; format: cell-based; conditions: CPT concentration of 5 μM
Experimental: GL-261 cells were seeded at a density of 1×10^4 cells/well into agarose coated 48-well plates. After the culture plates were incubated at 37° C. for 7 days, the spheroids were treated with free CPT, NT and P-NT at the CPT concentration of 5 μM. The tumor spheroids were photographed every two days. Growth inhibition was evaluated by measuring the size of the tumor spheroids. Volume of the tumor spheroids was calculated using the equation […], with dmax dmin representing the maximum and minimum diameter of the spheroid, respectively.

[2] = In vivo hydrogel formation and degradation after subcutaneous injection; parameters: species or system C57BL/6 mice; conditions: within 45 days
Experimental: 100 μl of 7.2 mM P-NT solution or diCPT-iRGD NT solution (5.75 mM, 100 μL) was injected into the back of C57BL/6 mice. The mice were then sacrificed at predetermined time points (1 hour, 5, 15, 30 and 45 days). The remaining hydrogel in each mouse was photographed and the amount of drug that persisted within the hydrogel was determined using HPLC.

GL-261 tumors = assay: Tumor tissue penetration, fluorescence imaging of tumor sections (NT vs NT-Sham); format: in vivo, GL-261 tumor-bearing mice; conditions: day 3 after intratumoral injection
Source text: FIG. 39 is fluorescence imaging of tumor sections to specifically analyze the information from tumor areas of GL-261 tumor-bearing mice that intratumoral injected with NT-Sham (NTs formed from diCPT-iRGRD) or NT. The images were obtained on day 3 day after treatment. Blue: CPT (Excitation at 365 nm), Red: DRAQS™ stained nuclei, scale bar: 500 μm.

[3] = Intratumoral retention of Cy7-labeled CDA (IVIS); format: in vivo, GL-261 tumor-bearing mice; conditions: intratumoral injection
Experimental: At predetermined time points, fluorescence images were recorded by an IVIS Spectrum imaging system (Perkin Elmer).

For `CC[C@@]1(OC(=O)OCCSSC[C@H](NC(C)=O)C(=O)NCCCC[C@H](NC(=O)[C@H](CSSCCOC(=O)O[C@]2(CC)C(=O)OCc3c2cc2n(c3=O)Cc3cc4ccccc4nc3-2)NC(C)=O)C(=O)N[C@H]2CSSC[C@@H](C(N)=O)NC(=O)[C@H](CC(=O)O)NC(=O)[C@@H]3CCCN3C(=O)CNC(=O)C(CCCNC(=N)N)NC(=O)[C@H](CC(=O)O)NC(=O)CNC(=O)[C@H](CCCNC(=N)N)NC2=O)C(=O)OCc2c1cc1n(c2=O)Cc2cc3ccccc3nc2-1` (stereo partly shown) [diCPT-iRGD] (Ac-C(S(CH2)2OCO2(CPT-20-yl))K(X1)CRGD[ξR]GPDC-NH2; disulfide 3-11), which “free CPT released” value [1] is on record?
The value was ~100%.

And the “cytotoxicity against GL-261 brain tumor cells” value (GL-261 cells)?
Its value is “potent cytotoxicity”.

And the “cytotoxicity against 3D tumor spheroids” value (GL-261 tumor spheroids)?
Its value is “potent cytotoxicity”.

And the hydrogel degraded [2]?
The hydrogel degraded was “approximately 75%”.

And the “CPT fluorescence at the tumor periphery” value (GL-261 tumors)?
The value was “distinct CPT fluorescence can be observed throughout the tumor and even at the tumor periphery”.

With `Nc1ncnc2c1ncn2[C@@H]1O[C@@H]2COP(O)(=S)O[C@@H]3C(O)[C@@H](COP(O)(=S)O[C@H]2[C@H]1O)O[C@H]3n1cnc2c(N)ncnc21` (stereo partly shown) [free CDA, 2′3′-c-di-AM(PS)2 (Rp,Rp)] as the molecule, how does the “CDA fluorescence signal in tumors” value [3] read?
Its value is “virtually no fluorescence signal observed five days after injection”.

B1: Human MMP2 recombinant protein (protein)
chain: APSPIIKFPGDVAPKTDKELAVQYLNTFYGCPKESCNLFVLKDTLKKMQKFFGLPQTGDLDQNTIETMRKPRCGNPDVANYNFFPRKPKWDKNQITYRIIGYTPDLDPETVDDAFARAFQVWSDVTPLRFSRIHDGEADIMINFGRWEHGDGYPFDGKDGLLAHAFAPGTGVGGDSHFDDDELWTLGEGQVVRVKYGNADGEYCKFPFLFNGKEYNSCTDTGRSDGFLWCSTTYNFEKDGKYGFCPHEALFTMGGNAEGQPCKFPFRFQGTSYDSCTTEGRTDGYRWCGTTEDYDRDKKYGFCPETAMSTVGGNSEGAPCVFPFTFLGNKYESCTSAGRSDGKMWCATTANYDDDRKWGFCPDQGYSLFLVAAHEFGHAMGLEHSQDPGALMAPIYTYTKNFRLSQDDIKGIQELYGASPDIDLGTGPTPTLGPVTPEICKQDIVFDGIAQIRGEIFFFKDRFIWRTVTPRDKPMGPLLVATFWPELPEKIDAVYEAPQEEKAVFFAGNEYWIYSASTLERGYPKPLTSLGLPPDVQRVDAAFNWSKNKKTYIFAGDKFWRYNEVKKKMDPGFPKLIADAWNAIPDNLDAVVDLQGGGHSYFFKGAYYLKLENQSLKSVKFGSIKSDWLGC
With B1 as the molecule, how does the “degradation of diCPT-PLGLAG-iRGD by MMP-2 (HPLC, 200 uM conjugate, 2 ug/ml MMP-2, 37 C)” value (diCPT-PLGLAG-iRGD) read?
The value was 54% cleaved after 8 hours.
